The target of test [1] is T1, Cardiac muscle myosin S2 synthetic peptide for GFS (MYH7), 36 residues (human).
T1 peptide: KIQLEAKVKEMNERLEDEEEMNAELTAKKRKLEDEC
Briefly: cell-based or functional assay.

Test [2] concerns the target T2, Cardiac muscle myosin S2 synthetic peptide for GFS, E930del mutant (MYH7 E930del), 35 residues (human, not fully specified).
T2 peptide: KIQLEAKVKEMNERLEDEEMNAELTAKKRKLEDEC
Briefly: cell-based or functional assay.

In test [3] the target is T3, Skeletal muscle myosin S2 synthetic peptide for GFS (MYH2), 36 residues (human).
T3 peptide: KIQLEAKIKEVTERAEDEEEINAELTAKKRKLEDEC
Briefly: cell-based or functional assay.

In test [4] the target is Rabbit skeletal myosin (rabbit). Briefly: cell-based or functional assay.
Test [5] addresses T1, Cardiac muscle myosin S2 synthetic …. As to the kind of experiment: cell-based or functional assay.
The target in test [6] is T2, Cardiac muscle myosin S2 synthetic …. As to the kind of experiment: cell-based or functional assay.
Test [7] has as its target T4, Smooth muscle myosin S2 synthetic peptide for GFS (MYH11), 36 residues (human).
T4 peptide: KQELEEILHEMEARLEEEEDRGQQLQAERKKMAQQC
Briefly: cell-based or functional assay.

The target of test [8] is T3, Skeletal muscle myosin S2 synthetic …. As to the kind of experiment: cell-based or functional assay.
The target of test [9] is T5, Human β-cardiac myosin S2 peptide, wild-type (MYH7, 19 residues) (human, also: in FRET: FITC on N-terminus of one monomer, terbium-DTPA-cytosine chelate on C-terminal Lys of the other).
T5 construct: Chemically synthesized; forms a coiled-coil dimer; also called human cardiac myosin S2 peptide; cardiac muscle myosin S2^pep
T5 peptide: EMNERLEDEEEMNAELTAK
As to the kind of experiment: competitive ELISA, printed as 'binding efficiency'. The procedure:
(§1) Unbound protein complexes are washed off by PBS and blocking buffer. Enzyme conjugated secondary antibody is added to the wells and allowed to conjugate for an hour. After washing with detergent buffer, color developing substrate BCIP is added and development of color in the wells is recorded. The video is analyzed by Image J to get the OD in the wells.
Background: In an ELISA, binding on a coated surface is turned into a signal by an enzyme label.

Test [10] deals with T5, Human β-cardiac myosin S2 peptide, …. As to the kind of experiment: FRET donor lifetime of labelled S2 peptide dimer titrated with stabilizer. An excerpt:
(§2) Donor probe was conjugated to C-terminus of a myosin S2 peptide monomer and acceptor probe was conjugated to N-terminus of another myosin S2 peptide. In FRET as lanthanide of the donor probe decays, energy goes to fluorescein and it emits out energy in form of light. In addition, as the monomers come closer to each other, lifetime of donor decreases indicating a decrease in distance between donor and acceptor probe; an opposite effect is observed, with an increase in distance between the probes, […]. Lifetime of donor probe was measured in milliseconds.
During FRET assay, cardiac muscle myosin S2^pep was treated with increasing concentrations of anti-S2 peptides. […] Dilution to decrease the concentration of dimer cardiac muscle myosin S2^pep was performed to measure binding affinity of coiled-coil peptide and in turn to measure minimal concentration for stable dimer formation (FIG. 25A). […] (FIG. 25B)

Test [11] has the same target. As to the kind of experiment: competitive ELISA, printed as 'binding constant'; differs from 1.37 nM at paragraph 347. How it is done:
as §1

Test [12] has as its target T6, Human β-cardiac mutant myosin S2 peptide (E930del), 18 residues (human, also: in FRET: FITC on N-terminus of one monomer, terbium-DTPA-cytosine chelate on C-terminal Lys of the other).
T6 construct: Deletion of glutamate 930 already in the entry; also called Edel930; ΔE930
T6 peptide: EMNERLEDEEMNAELTAK
Briefly: FRET donor lifetime of 0.1 µM labelled S2 peptide dimer titrated with stabilizer.

Test [13] deals with T7, Human β-cardiac mutant myosin S2 peptide (E924K), 19 residues (human, also: in FRET: FITC on N-terminus of one monomer, terbium-DTPA-cytosine chelate on C-terminal Lys of the other).
T7 construct: E924K already in the entry; also called Cardiac Myosin S2 Mutant, E924K
T7 peptide: EMNKRLEDEEEMNAELTAK
The description is as above.

The target of test [14] is T8, Human skeletal myosin S2 peptide (MYH2), 19 residues (human, also: in FRET: FITC on N-terminus of one monomer, terbium-DTPA-cytosine chelate on C-terminal Lys of the other).
T8 construct: also called skeletal muscle myosin S2^pep
T8 peptide: EVTERAEDEEEINAELTAK
Described as above.

Test [15] deals with T9, Human smooth myosin S2 peptide (MYH11), 21 residues (human, in FRET: FITC on the N-terminus of one monomer, terbium-DTPA-cytosine chelate on the C-terminal lysine of the other).
T9 construct: also called smooth muscle myosin S2^pep
T9 peptide: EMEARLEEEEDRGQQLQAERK
Briefly: FRET donor lifetime of the labelled smooth muscle S2 peptide dimer titrated with the peptide.
Source text: as §2
The specificity of peptides were later tested on the myosin S2 of the smooth muscle (MYH11). […] Smooth muscle myosin S2^pep was treated with different concentrations of anti-S2 peptides.

For test [16], the target named is T7, Human β-cardiac mutant myosin S2 …. As to the kind of experiment: FRET donor lifetime of 0.1 µM labelled dimer titrated with stabilizer; text value and unit differ from Table 3.
Source text: as §2

Test [17] addresses T5, Human β-cardiac myosin S2 peptide, …. As to the kind of experiment: competitive ELISA (curve fit of OD), printed as 'binding efficiency'; antibody 1:64, 62.5 nM S2 peptide, stabilizer 0 to 250 nM, rabbit skeletal myosin coated. How it is done: as §1
Test [18] has as its target T10, Rabbit skeletal myosin (rabbit).
T10 construct: mature; also called rabbit whole skeletal myosin; rabbit skeletal myosin S2
Briefly: 'previously calculated Kd values'; row stands under the IC-50 head for stabilizers, read as unlabeled stabilizer; method and source of the myosin not stated.

One may read the Kd as the free concentration of one partner at which half of the binding sites on the other are occupied at equilibrium, for simple one-to-one binding.

Where no end group is shown, it is not given here.

T10 sequence (Q28641 whole entry, chain 1 of 3): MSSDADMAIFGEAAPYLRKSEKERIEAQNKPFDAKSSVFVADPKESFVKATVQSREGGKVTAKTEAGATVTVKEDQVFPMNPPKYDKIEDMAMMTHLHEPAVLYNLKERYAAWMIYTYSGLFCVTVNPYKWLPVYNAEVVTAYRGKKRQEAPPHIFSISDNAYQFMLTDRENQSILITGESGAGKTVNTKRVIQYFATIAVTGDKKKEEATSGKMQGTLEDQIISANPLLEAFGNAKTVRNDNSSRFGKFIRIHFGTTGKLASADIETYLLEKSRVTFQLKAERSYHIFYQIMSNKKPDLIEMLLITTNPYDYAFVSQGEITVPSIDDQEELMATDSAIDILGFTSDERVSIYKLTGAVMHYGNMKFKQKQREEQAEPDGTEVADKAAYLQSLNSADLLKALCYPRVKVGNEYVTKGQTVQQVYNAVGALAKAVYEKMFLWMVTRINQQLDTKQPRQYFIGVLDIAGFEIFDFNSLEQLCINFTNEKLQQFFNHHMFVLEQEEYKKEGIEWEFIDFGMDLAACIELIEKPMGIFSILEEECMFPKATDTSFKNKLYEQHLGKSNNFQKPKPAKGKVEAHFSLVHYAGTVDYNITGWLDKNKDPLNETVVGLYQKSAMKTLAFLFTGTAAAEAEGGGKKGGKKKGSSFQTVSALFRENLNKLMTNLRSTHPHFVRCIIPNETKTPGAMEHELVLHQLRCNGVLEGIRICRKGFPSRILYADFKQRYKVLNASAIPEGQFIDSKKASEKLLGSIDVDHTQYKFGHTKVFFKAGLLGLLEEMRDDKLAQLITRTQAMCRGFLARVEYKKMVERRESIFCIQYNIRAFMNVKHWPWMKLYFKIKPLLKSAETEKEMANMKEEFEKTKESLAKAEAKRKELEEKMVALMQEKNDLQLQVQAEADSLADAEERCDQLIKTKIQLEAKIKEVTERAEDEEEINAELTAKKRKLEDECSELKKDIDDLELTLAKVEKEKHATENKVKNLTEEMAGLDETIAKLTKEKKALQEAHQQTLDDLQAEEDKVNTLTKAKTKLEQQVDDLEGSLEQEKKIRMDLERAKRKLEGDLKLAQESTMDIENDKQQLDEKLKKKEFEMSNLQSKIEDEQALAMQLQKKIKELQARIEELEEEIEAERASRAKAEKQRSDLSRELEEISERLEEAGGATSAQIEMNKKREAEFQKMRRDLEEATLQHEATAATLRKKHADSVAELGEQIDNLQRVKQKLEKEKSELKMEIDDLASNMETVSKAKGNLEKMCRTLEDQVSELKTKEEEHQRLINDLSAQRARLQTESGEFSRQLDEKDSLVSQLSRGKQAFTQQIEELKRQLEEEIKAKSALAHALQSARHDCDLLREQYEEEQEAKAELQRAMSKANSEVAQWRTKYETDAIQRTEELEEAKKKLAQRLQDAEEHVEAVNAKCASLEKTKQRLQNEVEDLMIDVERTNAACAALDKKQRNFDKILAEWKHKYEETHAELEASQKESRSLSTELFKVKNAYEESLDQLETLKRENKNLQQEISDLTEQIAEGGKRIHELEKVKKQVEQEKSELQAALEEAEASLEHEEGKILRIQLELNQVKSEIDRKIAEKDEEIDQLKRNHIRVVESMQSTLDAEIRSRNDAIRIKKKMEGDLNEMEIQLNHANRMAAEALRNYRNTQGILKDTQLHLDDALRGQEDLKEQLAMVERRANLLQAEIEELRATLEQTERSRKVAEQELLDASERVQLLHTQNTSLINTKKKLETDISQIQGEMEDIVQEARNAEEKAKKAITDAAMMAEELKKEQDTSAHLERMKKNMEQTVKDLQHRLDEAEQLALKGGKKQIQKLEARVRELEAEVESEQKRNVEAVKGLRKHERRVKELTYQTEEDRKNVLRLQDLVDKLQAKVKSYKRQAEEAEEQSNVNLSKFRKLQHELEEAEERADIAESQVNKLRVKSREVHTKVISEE
T10 sequence (P02602 2-192, chain 2 of 3, further chain): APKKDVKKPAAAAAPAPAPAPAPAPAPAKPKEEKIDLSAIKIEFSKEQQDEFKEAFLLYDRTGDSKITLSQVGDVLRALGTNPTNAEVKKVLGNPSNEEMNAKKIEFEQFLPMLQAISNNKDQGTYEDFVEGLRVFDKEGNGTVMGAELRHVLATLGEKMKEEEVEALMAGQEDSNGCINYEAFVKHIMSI
T10 sequence (P02608 2-170, chain 3 of 3, further chain): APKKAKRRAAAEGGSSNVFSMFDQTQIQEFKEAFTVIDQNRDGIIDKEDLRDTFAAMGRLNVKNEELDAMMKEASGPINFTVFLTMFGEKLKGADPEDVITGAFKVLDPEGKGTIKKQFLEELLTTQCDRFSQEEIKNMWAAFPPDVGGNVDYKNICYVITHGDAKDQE

B1: Stabilizer peptide (peptide)
peptide: KKKKKKKKFKAKKKKKK
notes: also called stabilizing peptide; unlabeled stabilizer
As to B1, the “GFS: fold increase of the force required to uncoil the coiled coil against control” value in test [1] is 1.8 times; in [2] it was 2.6 times; in test [3], 1.4 times. In addition, the “GFS: fold of force required to uncoil myosin in presence of stabilizer against control” value in the test with Rabbit skeletal myosin [4] stood at 1.5 times. The “GFS: force to uncoil the S2 peptide dimer to a length of 10 nm, with stabilizer” value in [5] was 1.55 pN; in test [6], 1.07 pN; in [7], 0.496 pN; in test [8] it was 0.628 pN. The Kd in test [9] stood at 0.001 µM; in test [10] it was 0.0212 µM; in test [11], 0.00138 µM; in test [12], 0.238 µM; in test [13] it was 0.034 µM; in test [14], 0.0197 µM. In addition, the figures for the Kd (in [16]; in test [17]; in the test with Rabbit skeletal myosin [18]) were 36200 µM, 0.00137 µM and 0.006 µM, respectively. In addition, the binding result in test [15] is “no binding”.
